Test results reported in patent publication EP3418383A1, “MODIFIED L-ASPARAGINASE” (XL-protein GmbH, priority 2017, dated 2018).

How the values were obtained:
[1] = L-asparaginase aminohydrolase activity, Nessler reagent assay (Example 1); assay type: biochemical; settings: for Enzyme activity compared to the equally assayed non-modified Crisantaspase: Nessler assay of Example 1
Method: The modified proteins were purified by anion exchange chromatography (AEX) on a MonoQ HR5/5 column (GE Healthcare) using 25 mM Na-borate pH 9.0, 1 mM EDTA as running buffer and a NaCl concentration gradient from 0 to 1 M to elute the proteins. L-asparaginase aminohydrolase activity of each Crisantaspase modified protein was determined by reaction of ammonia that is liberated via L-asparagine enzymatic activity with the Nessler reagent. Briefly, 50 µL of enzyme solution was mixed with 20 mM of L-asparagine in a 100 mM sodium borate buffer pH 8.6 containing 0.015 % (w/v) bovine serum albumin and incubated for 15 min at 37 °C. The reaction was stopped by addition of 200 µL of Nessler reagent (Sigma-Aldrich). Absorbance of this solution was measured at 450 nm. The activity was calculated from a calibration curve that was obtained from ammonium sulphate as reference. Table 2: Enzymatic activities of Crisantaspase conjugated with Pga-P/A(20)-Ahx peptide in different amounts

[2] = Pharmacokinetics, plasma asparaginase activity after single IV bolus dose; assay type: in vivo; settings: single IV bolus 25 IU/kg body weight, male CD-1 mice, non-compartmental
Method: The pharmacokinetic profile of E. coli expressed recombinant crisantaspase as a PASylated fusion protein (PA-200) or chemically conjugated to PA-peptides (PA-20) was characterized following administration of a single intravenous bolus dose to CD-1 mice. The CD-1 mice is a model for a healthy mouse.
All animals received a single intravenous (IV) bolus via the lateral tail vein (10 mL/kg) based on the body weight taken prior to dosing. Individual doses were calculated based upon the most recent individual body weights to provide the proper dose. The first day of dosing was based on study day 0 body weights.
PASylated asparaginase was administered as a single IV dose of 25 IU/kg body weight to mice. […] Asparaginase activity in mouse plasma was measured using a qualified biochemical assay as described in the previous examples. […]
Asparaginase activity was measured as the concentration of asparaginase in the plasma samples as previously described (Allas et al. (2009) Blood, 114, 2033). […] The plasma asparaginase activity versus time data were analyzed using non-compartmental methods with sparse sampling in an IV bolus administration model. Activity values below the limit of quantitation of the assay (10 U/L) were set to zero in the calculation of group means. […]

[3] = Analytical gel filtration (SEC), hydrodynamic volume / apparent molecular size; assay type: physicochemical; settings: tetramer, Superdex S200 10/300 GL, PBS, 1 mg/ml
Text: In order to avoid polymerization of the peptides upon chemical activation of the C-terminus, the N-terminus was protected with pyroglutamyl (Pga) residue. Aminohexanoic acid (Ahx) was incorporated at the C-terminus of the peptides to serve as linker. […] The hydroxybenzotriazol (HOBt) active ester of the peptide is subsequently used to derivatize the amino groups (ε-amino groups of lysine residues or α-amino group of N-terminus) of Crisantaspase with the P/A peptide through formation of peptide or isopeptide bonds, while free HOBt is released. This coupling step is performed in aqueous solution (e.g. PBS buffer) with a content of organic solvent ≤ 30 %. […] The number of coupled P/A peptides can be determined by counting the bands in that ladder starting from the unconjugated Crisantaspase as marked on the right. […] Separation of remaining uncoupled peptide and other non-proteinous byproducts of the chemical conjugation devoid of UV absorption at 280 nm was monitored by the 225 nm UV trace. […]

[4] = L-asparaginase enzyme activity, Nessler endpoint assay, specific activity (Example 8); assay type: biochemical; settings: Crisantaspase expression system E. coli; for Nessler (Average): average of plates 1-3; for Nessler Plate 1 / Nessler Plate 2 / Nessler Plate 3: specific activity
Method: PASylated L-asparaginase enzyme activity was determined by catalysis of the conversion of L-asparagine into L-aspartic acid. This reaction liberates one mole of ammonia per mole of converted L-asparagine. The released ammonia is detected using Nessler's reagent. In the presence of Nessler's reagent the ammonia will form a watersoluble yellow complex that can be quantified by absorbance measurement at 450 nm (Mashburn et al. (1963) Biochem. Biophys. Res. Commun. 12, 50). One unit of L-asparaginase enzyme activity (International Unit or IU) is defined as the amount of enzyme that catalyzes the conversion of one µmol of L-asparagine per minute. The specific activity of the samples (IU/mg) is determined by dividing the value of L-asparaginase activity expressed in IU/mL by the protein concentration expressed in mg/mL. The mass of the protein monomer with the PASylated sequence was measured.
The measurement of L-asparaginase activity is based on an endpoint assay in which the sample is diluted to a series of final enzyme concentrations which are then incubated at 37°C under saturating L-asparagine concentration for 15 minutes. The reaction is stopped by addition of Nessler's reagent and the amount of ammonia produced by the reaction is extrapolated from a calibration curve constructed from known quantities of ammonium sulfate used as standard. A plot of enzyme concentration versus ammonia is then created for each sample and the slope of the curve divided by the reaction time to obtain the specific activity in IU/mg. Specific activity is reported as IU/mg and is reported to the nearest whole number.

[5] = children who received the drug; cited from earlier work
[6] = PEGylated enzyme compared to the unmodified L-asparaginase; cited from earlier work
[7] = 3.5 mg PA peptide/mg Crisantaspase, 10.4 mol PA peptide/mol monomer
[8] = 5 mg PA peptide/mg Crisantaspase, 11.2 mol PA peptide/mol monomer
[9] = 7.5 mg PA peptide/mg Crisantaspase, 11.7 mol PA peptide/mol monomer
[10] = 10 mg PA peptide/mg Crisantaspase, 12.0 mol PA peptide/mol monomer

“Pyroglutamoyl-P/A(20)-aminohexanoyl-Crisantaspase” gave a Rel. activity [1, 7] of 94.1%, a Specific activity [1, 7] of 508 ± 20 U/mg and a Rel. activity [1, 8] of 80.7%. It also gave a Specific activity [1, 8] of 436 ± 22 U/mg, a Rel. activity [1, 9] of 74.3% and a Specific activity [1, 9] of 401 ± 21 U/mg. It also gave a Rel. activity [1, 10] of 47.4% and a Specific activity [1, 10] of 256 ± 20 U/mg.

For “Pyroglutamoyl-P/A(20)-aminohexanoyl-Crisantaspase [Crisantaspase/PA(20) modified protein]”, the “Enzyme activity compared to the equally assayed non-modified Crisantaspase” value [1] was 91.2%, the t½ [2] was 50.2 h and the apparent molecular size [3] was 531 kDa. For the same molecule, the “Nessler (Average)” value [4] was 676 IU/mg, the “Nessler Plate 1” value [4] was 694 IU/mg and the “Nessler Plate 2” value [4] was 732 IU/mg. The “Nessler Plate 3” value [4] was 602 IU/mg.

With “Pyroglutamoyl-P/A(40)-aminohexanoyl-Crisantaspase [Crisantaspase/PA(40) modified protein]” the “Enzyme activity compared to the equally assayed non-modified Crisantaspase” value [1] was 78.2%, the apparent molecular size [3] was 820 kDa and the “Nessler (Average)” value [4] was 528 IU/mg. For the same molecule, the “Nessler Plate 1” value [4] was 567 IU/mg, the “Nessler Plate 2” value [4] was 528 IU/mg and the “Nessler Plate 3” value [4] was 490 IU/mg.

B1: Oncaspar®: E. coli L-asparaginase modified at multiple lysine residues using 5 kDa mPEG-succinimidyl succinate (conjugate, UniProt P00805 23-348, looked up)
L-asparaginase 2: LPNITILATGGTIAGGGDSATKSNYTVGKVGVENLVNAVPQLKDIANVKGEQVVNIGSQDMNDNVWLTLAKKINTDCDKTDGFVITHGTDTMEETAYFLDLTVKCDKPVVMVGAMRPSTSMSADGPFNLYNAVVTAADKASANRGVLVVMNDTVLDGRDVTKTNTTDVATFKSVNYGPLGYIHNGKIDYQRTPARKHTSDTPFDVSKLNELPKVGIVYNYANASDLPAKALVDAGYDGIVSAGVGNGNLYKSVFDTLATAAKTGTAVVRSSRVPTGATTQDAEVDDAKYGFVASGTLNPQKARVLLQLALTQTKDPQQIQQIFNQY
modifications: 5 kDa mPEG succinimidyl succinate
notes: E. coli L-asparaginase modified at multiple lysine residues using 5 kDa mPEG-succinimidyl succinate
In the case of B1, the “children who had an allergic reaction” value [5] is listed as 30-41% and the in vitro activity [6] is listed as “approximately 50%”.
